Test results taken from US20040213795A1.

Target: Human PD-1 fusion protein (human) (UniProt Q15116)
Assay: ELISA on coated human PD-1/IgG chimera (2.5 ug/ml), HRP anti-murine antibody

Human PD-1 fusion protein (human), sequence (Q15116 other isoform, or with tags, fused parts or gaps): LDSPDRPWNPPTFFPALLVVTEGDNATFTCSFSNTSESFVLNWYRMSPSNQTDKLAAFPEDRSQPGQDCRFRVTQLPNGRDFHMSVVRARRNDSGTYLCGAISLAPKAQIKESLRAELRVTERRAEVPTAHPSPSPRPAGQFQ

Murine anti-human PD-1 antibody J110
EC50 (read off the curve): 1 mg/L
